Reference: paper PMC5045412, “Inhibition of pro-HGF activation by SRI31215, a novel approach to block oncogenic HGF/MET signaling” (Oncotarget, 2016)

Columns and labels:
DiFi cells = DiFi cells co-cultured with WI38 fibroblasts, immunoblotting; type: cell-based; conditions: gefitinib 0.5 μM
Protocol: Figure 7 Fibroblasts protect DiFi cells from EGFRi in an HGF-dependent manner DiFi cells were treated with gefitinib (0.5 μM) alone or were co-cultured with WI38 fibroblasts (FIB) in the absence or the presence of SRI 31215 (10 μM) or JNJ38877605 (1 μM). The DiFi cell lysates were isolated after 4 or 24 hours as indicated and examined for the expression of pERK and total ERK, pEGFR and total EGFR, cleaved PARP, β-catenin gelsolin and β-actin by immunoblotting.
Immunoblotting was performed using standard procedures. Membranes were blocked with 5% non-fat milk for 1 hour at RT, and incubated with primary antibodies overnight at 4°C. Primary antibodies used were anti-HGF (R&D Systems), anti-MET, anti-p-MET, anti-p-GAB1, anti-p-AKT, anti-p-ERK1/2, anti-vimentin (Cell Signaling Technology), anti-p-STAT3 (Upstate Cell Signaling Solutions), anti-E-cadherin (BD Transduction Laboratories), anti-β-actin (Sigma). Following washing with TBS-T buffer, membranes were incubated with horseradish peroxidase-conjugated secondary antibodies for 1 hour and then washed with TBS-T. Immunoblots were developed using the chemiluminescent detection system with ECL (Amersham). Protein loading was normalized by probing blots for the expression of β-actin.

recombinant human HGFA = target: T1, recombinant human HGFA (Homo sapiens, UniProt Q04756); assay: Proteolytic activation of pro-HGF by HGFA (immunoblotting); type: biochemical; conditions: SRI 31215 10 μM, HAI-1 20 nM, HGFA 1 nM
T1 construct: purchased R&D Systems
T1 sequence (Q04756 408-655 limits assumed): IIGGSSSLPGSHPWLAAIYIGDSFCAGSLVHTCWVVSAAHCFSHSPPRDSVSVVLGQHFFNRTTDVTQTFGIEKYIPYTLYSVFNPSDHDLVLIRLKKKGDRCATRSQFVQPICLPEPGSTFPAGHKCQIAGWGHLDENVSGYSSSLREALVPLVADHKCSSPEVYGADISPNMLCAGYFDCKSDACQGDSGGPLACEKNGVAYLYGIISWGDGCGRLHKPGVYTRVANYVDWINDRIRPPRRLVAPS
T1 sequence (Q04756 373-407 partner limits assumed): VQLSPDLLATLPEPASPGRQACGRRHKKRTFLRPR
Protocol: Recombinant human HAI-1, recombinant human HGFA, and recombinant human HGF propeptide (pro-HGF) were purchased from R&D Systems. SRI 31215 (10 μM) or recombinant human HAI-1 (20 nM) were mixed with activated recombinant human HGFA pro-peptide (1nM) in TNC buffer (pH 8.0) and incubated at room temperature for 30 minutes. Recombinant human pro-HGF (40 ng) was added and incubated at 37°C for 1 hour. The reaction was stopped by SDS-PAGE gel sample buffer and samples were boiled and separated by 12% PAGE. Proteins were transferred onto nitrocellulose membrane, blocked with 5% milk and immunoblotted using antibodies that recognize pro-HGF as well as α and β chains of activated HGF.

RKO cells = assay: Clonogenic growth and viability of HGF-producing RKO cells with EGFR inhibitors; type: cell-based; conditions: RKO cells, SRI 31215 10 μM, JNJ 38877605 1 μM, HAI-1 20 nM
Protocol: Figure 5 Inhibitors of HGF/MET signaling prevent the innate and acquired resistance to cetuximab A. and B. RKO cells were treated with cetuximab (50 μg/ml) (A) of gefitinib (B) alone, or in combination with SRI 31215 (10 μM), JNJ 38877605 (1 μM) or recombinant HAI-1 (20 nM) as indicated and clonogenic growth was monitored as described in Materials and Methods. C. and D. Caco2 cells were treated with cetuximab or gefitinib alone or in the presence of CM from fibroblasts and SRI 31215 (10 μM) or JNJ 38877605 (1 μM) as indicated. #: p<0.05, compared to control (CTRL); NS: not significant.
Cell titer-glo luminescent cell viability assay kit was purchased from Promega. […] For clonogenic assay, cells were seeded in 6-well plates at a density of 400 cells per well, serum starved overnight, and treated as indicated. After colony formation (8-12 days), cells were stained with crystal violet and the number of colonies was determined using ImageQuantTL (GE Health Care Life Sciences).
Supplementary Figure S3: Inhibition of HGF/MET signaling sensitizes HGF-producing RKO colon cancer cells to gefitinib. A. RKO cells (HGF+) and B. HT29 (HGF-) cells were treated with gefitinib (5 μM) in the absence or the presence of SRI 31215 (10 μM) or JNJ 38877605 (1 μM) as indicated and viability was determined 24 and 72 hours after treatment. # indicates statistical significance compared to samples treated with gefitinib alone as determined by Students’ t-test (p<0.05).
(also on this page, place not known: www.impactjournals.com/oncotarget/ Oncotarget, Materials 2016 Supplementary (HGF +) (HGF -)) […]

| Molecule | levels of β-catenin (DiFi cells) | HGFA-induced cleavage of pro-HGF into alpha and beta chains (recombinant human HGFA) | clonogenic growth, agent alone (RKO cells) | clonogenic growth, combination with cetuximab (RKO cells; cetuximab 50 μg/ml) |
| --- | --- | --- | --- | --- |
| COc1cc2ncnc(Nc3ccc(F)c(Cl)c3)c2cc1OCCCN1CCOCC1 [Gefitinib] | reduced | – | – | – |
| HAI-1: recombinant human HAI-1, endogenous inhibitor of HGF activation, positive control (protein, UniProt O43278 36-529, looked up) Kunitz-type protease …: GPPPAPPGLPAGADCLNSFTAGVPGFVLDTNASVSNGATFLESPTVRRGWDCVRACCTTQNCNLALVELQPDRGEDAIAACFLINCLYEQNFVCKFAPREGFINYLTREVYRSYRQLRTQGFGGSGIPKAWAGIDLKVQPQEPLVLKDVENTDWRLLRGDTDVRVERKDPNQVELWGLKEGTYLFQLTVTSSDHPEDTANVTVTVLSTKQTEDYCLASNKVGRCRGSFPRWYYDPTEQICKSFVYGGCLGNKNNYLREEECILACRGVQGGPLRGSSGAQATFPQGPSMERRHPVCSGTCQPTQFRCSNGCCIDSFLECDDTPNCPDASDEAACEKYTSGFDELQRIHFPSDKGHCVDLPDTGLCKESIPRWYYNPFSEHCARFTYGGCYGNKNNFEEEQQCLESCRGISKKDVFGLRREIPIPSTGSVEMAVAVFLVICIVVVVAILGYCFFKNQRKDFHGHHHHPPPTPASSTVSTTEDTEHLVYNHTTRPL | – | inhibited | did not impact | significant decrease |
